Columns and labels:
[1] = target: wild-type EGFR (wtEGFR) (human) (UniProt P00533); assay: Scatchard, A431 cells
[2] = target: wild-type EGFR (wtEGFR) (human) (UniProt P00533); assay: Scatchard, 125I-labeled 528 on A431 cells
[3] = target: wild-type EGFR (wtEGFR) (human) (UniProt P00533); assay: immunohistochemistry on glioblastoma tissue; EGFR amplified, no de2-7 EGFR
de2-7 EGFR (human) = de2-7 EGFR (human) (UniProt P00533); assay: immunohistochemistry on glioblastoma tissue; EGFR amplified, de2-7 EGFR expressed

receptors per cell (receptors per cell) [1]: 2e+06
binding sites per cell (sites per cell) [2]: 2e+06
percent of immunoreactive cells (immunohistochemistry) [3]: > 75%
percent of immunoreactive cells (immunohistochemistry) (de2-7 EGFR (human)): > 75%
Substance: mAb528 (antibody)

Reference: patent publication US20110293511A1, “SPECIFIC BINDING PROTEINS AND USES THEREOF” (priority 2009, published 2011)
